How the values were obtained:
Assay in all cases: SPOT array
[1] = molecular target: T1, Yfr024 SH3 (LSB3_YEAST), P43603
T1 chain: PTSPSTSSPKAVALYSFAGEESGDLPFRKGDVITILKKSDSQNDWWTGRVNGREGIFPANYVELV

[2] = molecular target: T2, Rvs167 SH3 (RV167_YEAST), P39743
T2 chain: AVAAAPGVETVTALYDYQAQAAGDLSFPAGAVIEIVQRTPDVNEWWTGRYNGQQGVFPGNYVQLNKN

[3] = molecular target: Sho1 SH3 (SHO1_YEAST), P40073
[4] = molecular target: T3, Boi1 SH3 (BOI1_YEAST), P38041
T3 chain: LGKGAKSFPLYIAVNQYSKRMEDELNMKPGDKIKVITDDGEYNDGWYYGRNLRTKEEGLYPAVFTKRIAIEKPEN

[5] = molecular target: T4, Myo5 SH3 (MYO5_YEAST), Q04439
T4 chain: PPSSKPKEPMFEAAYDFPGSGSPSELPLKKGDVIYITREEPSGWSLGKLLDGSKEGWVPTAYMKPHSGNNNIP

[6] = molecular target: T5, Yhr016c SH3 (YSC84_YEAST), P32793
T5 chain: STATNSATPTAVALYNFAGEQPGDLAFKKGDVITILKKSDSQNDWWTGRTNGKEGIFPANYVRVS

[7] = molecular target: T6, Boi2 SH3 (BOI2_YEAST), P39969
T6 chain: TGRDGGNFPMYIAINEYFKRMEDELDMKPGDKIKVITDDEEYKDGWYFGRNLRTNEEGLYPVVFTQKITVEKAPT

Chain of Sho1 SH3 (SHO1_YEAST), P40073 (P40073 295-366): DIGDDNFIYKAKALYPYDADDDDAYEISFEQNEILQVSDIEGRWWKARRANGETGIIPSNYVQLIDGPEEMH

| Binder | normalised SPOT signal, Boehringer light units (BLU); mean over the file's lines of this peptide [1] | normalised SPOT signal, Boehringer light units (BLU); mean over the file's lines of this peptide [2] | normalised SPOT signal, Boehringer light units (BLU); mean over the file's lines of this peptide [3] | normalised SPOT signal, Boehringer light units (BLU); mean over the file's lines of this peptide [4] | normalised SPOT signal, Boehringer light units (BLU); mean over the file's lines of this peptide [5] | normalised SPOT signal, Boehringer light units (BLU); mean over the file's lines of this peptide [6] | normalised SPOT signal, Boehringer light units (BLU); mean over the file's lines of this peptide [7] |
| --- | --- | --- | --- | --- | --- | --- | --- |
| RKSDKNAPSVPQVD [YJL117W 12-25] | 13.7 | 40.6 | 89.7 | 1390 | 395 | 50.6 | -0 |
| RLIKRLKPPAPKEP [YML127W 362-375] | 296 | 133 | 166 | 375 | 403 | 65.9 | 40.3 |
| QWSKRIMPYIPGPV [YBR200W 345-358] | 1820 | 140 | 230 | 123 | 296 | 109 | 145 |
| REGPKSSPRGPLSP [YPR107C 40-53] | 184 | 30.2 | 27.8 | 3920 | 188 | 36.3 | 11.9 |
| RGWQRFLPTGPIAH [YGR255C 239-252] | 2080 | 562 | 479 | 95.9 | 802 | 597 | 120 |
| RIRDKSKPSSPTAT [YDR474C 379-392] | 592 | 55.6 | 169 | 1510 | 547 | 46.3 | 3.1 |
| RFWTRARPIDPNAY [YNL317W 375-388] | 4260 | 1610 | 177 | 487 | 279 | 970 | 1230 |
| RDDVKRTPFIPESV [YPL093W 369-382] | 92 | 86.7 | 45.2 | 0 | 171 | 0 | 0 |
| RAGNREPPSTPSTL [YBR079C 874-887] | 212 | 77.6 | 135 | 705 | 274 | 31.9 | 18.7 |
| QTVIKTHPRIPKSE [YMR211W 94-107] | 134 | 9.1 | 67 | 213 | 186 | 63.7 | 17.1 |
| REYIKSLPMYPAAP [YBL016W 257-270] | 102 | 101 | 5160 | 150 | 70.4 | 48 | 83.3 |
| QVYEKTIPLFPPEI [YDR416W 606-619] | 9.3 | 22.8 | 31.6 | 11 | 153 | 5.4 | 3.6 |
| RHSKKPAPPPPGMQ [YMR109W 1006-1019] | 304 | 56.3 | 175 | 341 | 1940 | 17.7 | 22.2 |
| RLLFRSLPPHPASL [YCR022C 77-90] | 3510 | 587 | 571 | 465 | 746 | 1600 | 67.2 |
| RLLSKYRPSSPIIL [YOR347C 411-424] | 519 | 1120 | 41.8 | 718 | 337 | 245 | 50.1 |
| RFSSRRAPIAPSGK [YMR031W-A 89-102] | 2420 | 774 | 124 | 2030 | 564 | 184 | 54.1 |
